From PMC3561583

Molecular target: FLAG-Sur1 (UniProt Q09427)
Experiment: FRET or BRET

Chain of UniProt Q09427 (Q09427 whole entry): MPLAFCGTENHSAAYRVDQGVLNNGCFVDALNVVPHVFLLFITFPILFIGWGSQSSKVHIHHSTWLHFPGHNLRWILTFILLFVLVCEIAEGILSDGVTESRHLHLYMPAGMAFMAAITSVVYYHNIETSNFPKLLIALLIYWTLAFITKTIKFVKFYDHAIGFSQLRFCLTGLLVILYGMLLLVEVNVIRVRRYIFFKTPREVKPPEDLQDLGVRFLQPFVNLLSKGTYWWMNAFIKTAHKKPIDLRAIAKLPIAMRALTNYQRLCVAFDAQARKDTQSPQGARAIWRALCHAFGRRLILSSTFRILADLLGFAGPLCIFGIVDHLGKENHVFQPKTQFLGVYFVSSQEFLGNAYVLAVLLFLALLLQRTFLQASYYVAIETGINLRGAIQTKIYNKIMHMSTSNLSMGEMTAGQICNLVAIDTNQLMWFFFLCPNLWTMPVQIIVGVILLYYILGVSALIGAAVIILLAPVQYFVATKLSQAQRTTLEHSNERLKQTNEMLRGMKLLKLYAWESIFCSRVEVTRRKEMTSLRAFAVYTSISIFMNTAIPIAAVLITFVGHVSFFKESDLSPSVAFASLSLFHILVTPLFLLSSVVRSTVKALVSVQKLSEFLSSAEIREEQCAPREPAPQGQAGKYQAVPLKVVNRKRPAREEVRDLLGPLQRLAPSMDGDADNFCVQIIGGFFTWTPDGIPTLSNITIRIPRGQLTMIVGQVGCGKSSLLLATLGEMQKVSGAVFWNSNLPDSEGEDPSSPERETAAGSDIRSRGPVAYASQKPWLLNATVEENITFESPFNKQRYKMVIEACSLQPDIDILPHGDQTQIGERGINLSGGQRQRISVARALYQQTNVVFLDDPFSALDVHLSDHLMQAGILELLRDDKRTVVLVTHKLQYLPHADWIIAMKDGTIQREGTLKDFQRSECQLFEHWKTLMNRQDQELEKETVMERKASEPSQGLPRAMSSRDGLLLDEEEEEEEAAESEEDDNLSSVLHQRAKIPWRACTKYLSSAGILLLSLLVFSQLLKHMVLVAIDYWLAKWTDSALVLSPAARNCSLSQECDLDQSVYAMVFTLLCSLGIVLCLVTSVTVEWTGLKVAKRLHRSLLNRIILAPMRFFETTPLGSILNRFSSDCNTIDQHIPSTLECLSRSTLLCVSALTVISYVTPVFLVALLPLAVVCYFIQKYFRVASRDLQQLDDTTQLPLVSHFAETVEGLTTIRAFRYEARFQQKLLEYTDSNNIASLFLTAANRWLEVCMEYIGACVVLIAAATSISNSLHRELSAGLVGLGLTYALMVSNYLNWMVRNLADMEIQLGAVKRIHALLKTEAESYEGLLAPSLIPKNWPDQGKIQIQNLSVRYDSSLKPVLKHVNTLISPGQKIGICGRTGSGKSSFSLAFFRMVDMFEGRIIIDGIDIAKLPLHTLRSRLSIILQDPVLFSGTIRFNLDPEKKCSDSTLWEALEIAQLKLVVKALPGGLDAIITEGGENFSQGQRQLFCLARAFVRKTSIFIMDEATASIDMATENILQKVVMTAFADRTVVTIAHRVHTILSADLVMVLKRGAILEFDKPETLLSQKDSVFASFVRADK

- FRET efficiency at steady state: 11%
Substance: Myc-Trpm4 (from UniProt Q7TN37-1 1-1213) (natural protein)
